B1: TPR t1 (parent)
chain: GACCAAUCUGCCCUCAGAGCUCGAGAACAUCUUCGGAUGCAGAGGAGGCAGGCUUCGGUGGCGCGAUAGCGCCAACGUCCUCAACCUCCAAUGCAUCCCACCACAUGAUGAUGCCUGAAGAGCCUUGGUUUUUUG

Variants of: B1
Test: polymerase ribozyme fitness, log enrichment relative to wild type (log ratio); higher = more active; in vitro selection for triplet polymerase activity
Procedure, shortened: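 Fitness measures genotype enrichment against wild-type enrichment on a logarithmic scale, with inverse-variance-weighted averaging of replicates. The logarithm is base 2, and genotypes were kept only with ≥10 input reads and ≥1 read per output in Illumina sequencing. The sequenced libraries came from one triplicate in vitro selection round, including frozen incubation at −7 °C, of PCR-built, transcribed mutant libraries of each subunit of a heterodimeric triplet polymerase ribozyme.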

Question: For GACCAAUCUGCCCUCAGAGCUCGAGAACAUCUUCGGAUGCAGAGGAGGCAGGCUUCGGUGGCGCGAUAGCGCCAACGUCCUCAACCUCCAAUGCAUCCCACCACAUGAUGAUGCCUGAAGAACCUUGGUUUUGUG [G122A U133G], which “polymerase ribozyme fitness (log ratio)” value is on record?
Answer: -0.871

Question: With GACCAAUCUGCCCUCAGAGCUCGAGAACAUCUUCGGAUGCAGAGGAGGCAGGCUUCGGUGGCGCGAUAGCGCCAACGUCCUCAACCUCCAAUGCAUCCCACCACAUGAUGAUGCCUGAAGAGCUAUGGUUUUUUG [C124U U125A] as the variant, how does the “polymerase ribozyme fitness (log ratio)” value read?
Answer: 0.926

Question: With GACCAAUCUGCCCUCAGAGCUCGAGAACAUCUUCGGAUGCAGAGGAGGCAGGCUUCGGUGGCGCGAUAGCGCCAACGUCCUCAACCUCCAAUGCAUCCCACCACAUGAUGAUGCCUGAAGAGCCUUGGCUUUUUU [U129C G135U] as the variant, how does the “polymerase ribozyme fitness (log ratio)” value read?
Answer: -0.0345

Question: Which “polymerase ribozyme fitness (log ratio)” value does the source give for GACCAAUCUGCCCUCAGAGCUCGAGAACAUCUUCGGAUGCAGAGGAGGCAGGCUUCGGUGGCGCGAUAGCGCCAACGUCCUCAACCUCCAAUGCAUCCCACCACAUGAUGAUGCCUGAAGAGCCUUGGCUUUUUC [U129C G135C] here?
Answer: 0.513

Question: For GACCAAUCUGCCCUCAGAGCUCGAGAACAUCUUCGGAUGCAGAGGAGGCAGGCUUCGGUGGCGCGAUAGCGCCAACGUCCUCAACCUCCAAUGCAUCCCACCACAUGAUGAUGCCUGAAGAGCCUUAGUUUUUUU [G127A G135U], which “polymerase ribozyme fitness (log ratio)” value is on record?
Answer: -2.16

Question: For GACCAAUCUGCCCUCAGAGCUCGAGAACAUCUUCGGAUGCAGAGGAGGCAGGCUUCGGUGGCGCGAUAGCGCCAACGUCCUCAACCUCCAAUGCAUCCCACCACAUGAUGAUGCCUGAAGAGUCUUGGAUUUUUG [C123U U129A], which “polymerase ribozyme fitness (log ratio)” value is on record?
Answer: 0.307

Question: For GACCAAUCUGCCCUCAGAGCUCGAGAACAUCUUCGGAUGCAGAGGAGGCAGGCUUCGGUGGCGCGAUAGCGCCAACGUCCUCAACCUCCAAUGCAUCCCACCACAUGAUGAUGCCUGAAGAGCGUUGCUUUUUUG [C124G G128C], which “polymerase ribozyme fitness (log ratio)” value is on record?
Answer: -0.216

Question: With GACCAAUCUGCCCUCAGAGCUCGAGAACAUCUUCGGAUGCAGAGGAGGCAGGCUUCGGUGGCGCGAUAGCGCCAACGUCCUCAACCUCCAAUGCAUCCCACCACAUGAUGAUGCCUGAAGAGCCUUCGCUUUUUG [G127C U129C] as the variant, how does the “polymerase ribozyme fitness (log ratio)” value read?
Answer: -2.22

Question: Which “polymerase ribozyme fitness (log ratio)” value does the source give for GACCAAUCUGCCCUCAGAGCUCGAGAACAUCUUCGGAUGCAGAGGAGGCAGGCUUCGGUGGCGCGAUAGCGCCAACGUCCUCAACCUCCAAUGCAUCCCACCACAUGAUGAUGCCUGAAGAGCCUUGAUUAUUUG [G128A U131A] here?
Answer: -2.44

Question: Which “polymerase ribozyme fitness (log ratio)” value does the source give for GACCAAUCUGCCCUCAGAGCUCGAGAACAUCUUCGGAUGCAGAGGAGGCAGGCUUCGGUGGCGCGAUAGCGCCAACGUCCUCAACCUCCAAUGCAUCCCACCACAUGAUGAUGCCUGAAGAGCCUUGGUCUUUUG [U130C] here?
Answer: 0.0585

Question: Which “polymerase ribozyme fitness (log ratio)” value does the source give for GACCAAUCUGCCCUCAGAGCUCGAGAACAUCUUCGGAUGCAGAGGAGGCAGGCUUCGGUGGCGCGAUAGCGCCAACGUCCUCAACCUCCAAUGCAUCCCACCACAUGAUGAUGCCUGAAGAGCCUUGGUGUUUUG [U130G] here?
Answer: -0.361

Question: For GACCAAUCUGCCCUCAGAGCUCGAGAACAUCUUCGGAUGCAGAGGAGGCAGGCUUCGGUGGCGCGAUAGCGCCAACGUCCUCAACCUCCAAUGCAUCCCACCACAUGAUGAUGCCUGAAGAGCCUUGGUAUUUUG [U130A], which “polymerase ribozyme fitness (log ratio)” value is on record?
Answer: -0.523

Question: Which “polymerase ribozyme fitness (log ratio)” value does the source give for GACCAAUCUGCCCUCAGAGCUCGAGAACAUCUUCGGAUGCAGAGGAGGCAGGCUUCGGUGGCGCGAUAGCGCCAACGUCCUCAACCUCCAAUGCAUCCCACCACAUGAUGAUGCCUGAAGAGCAUUGGUUUUUGG [C124A U134G] here?
Answer: 3.41

Question: For GACCAAUCUGCCCUCAGAGCUCGAGAACAUCUUCGGAUGCAGAGGAGGCAGGCUUCGGUGGCGCGAUAGCGCCAACGUCCUCAACCUCCAAUGCAUCCCACCACAUGAUGAUGCCUGAAGAGGCUGGGUUUUUUG [C123G U126G], which “polymerase ribozyme fitness (log ratio)” value is on record?
Answer: -0.0102

Question: With GACCAAUCUGCCCUCAGAGCUCGAGAACAUCUUCGGAUGCAGAGGAGGCAGGCUUCGGUGGCGCGAUAGCGCCAACGUCCUCAACCUCCAAUGCAUCCCACCACAUGAUGAUGCCUGAAGAGCGUAGGUUUUUUG [C124G U126A] as the variant, how does the “polymerase ribozyme fitness (log ratio)” value read?
Answer: 1.15

Question: With GACCAAUCUGCCCUCAGAGCUCGAGAACAUCUUCGGAUGCAGAGGAGGCAGGCUUCGGUGGCGCGAUAGCGCCAACGUCCUCAACCUCCAAUGCAUCCCACCACAUGAUGAUGCCUGAAGAGCCUUAGGUUUUUG [G127A U129G] as the variant, how does the “polymerase ribozyme fitness (log ratio)” value read?
Answer: -1.62

Question: Which “polymerase ribozyme fitness (log ratio)” value does the source give for GACCAAUCUGCCCUCAGAGCUCGAGAACAUCUUCGGAUGCAGAGGAGGCAGGCUUCGGUGGCGCGAUAGCGCCAACGUCCUCAACCUCCAAUGCAUCCCACCACAUGAUGAUGCCUGAAGAGGCUUGGUGUUUUG [C123G U130G] here?
Answer: 1.48

Question: For GACCAAUCUGCCCUCAGAGCUCGAGAACAUCUUCGGAUGCAGAGGAGGCAGGCUUCGGUGGCGCGAUAGCGCCAACGUCCUCAACCUCCAAUGCAUCCCACCACAUGAUGAUGCCUGAAGAGCAUUCGUUUUUUG [C124A G127C], which “polymerase ribozyme fitness (log ratio)” value is on record?
Answer: 0.796

Question: With GACCAAUCUGCCCUCAGAGCUCGAGAACAUCUUCGGAUGCAGAGGAGGCAGGCUUCGGUGGCGCGAUAGCGCCAACGUCCUCAACCUCCAAUGCAUCCCACCACAUGAUGAUGCCUGAAGAGCCUUGUCUUUUUG [G128U U129C] as the variant, how does the “polymerase ribozyme fitness (log ratio)” value read?
Answer: -0.805

Question: Which “polymerase ribozyme fitness (log ratio)” value does the source give for GACCAAUCUGCCCUCAGAGCUCGAGAACAUCUUCGGAUGCAGAGGAGGCAGGCUUCGGUGGCGCGAUAGCGCCAACGUCCUCAACCUCCAAUGCAUCCCACCACAUGAUGAUGCCUGAAGAGCCGUGGUUUCUUG [U125G U132C] here?
Answer: -0.45

Question: With GACCAAUCUGCCCUCAGAGCUCGAGAACAUCUUCGGAUGCAGAGGAGGCAGGCUUCGGUGGCGCGAUAGCGCCAACGUCCUCAACCUCCAAUGCAUCCCACCACAUGAUGAUGCCUGAAGAGCAUUGGUUAUUUG [C124A U131A] as the variant, how does the “polymerase ribozyme fitness (log ratio)” value read?
Answer: 1.79

Question: With GACCAAUCUGCCCUCAGAGCUCGAGAACAUCUUCGGAUGCAGAGGAGGCAGGCUUCGGUGGCGCGAUAGCGCCAACGUCCUCAACCUCCAAUGCAUCCCACCACAUGAUGAUGCCUGAAGAGGCUUGGUUUUUUU [C123G G135U] as the variant, how does the “polymerase ribozyme fitness (log ratio)” value read?
Answer: 1.4

Question: With GACCAAUCUGCCCUCAGAGCUCGAGAACAUCUUCGGAUGCAGAGGAGGCAGGCUUCGGUGGCGCGAUAGCGCCAACGUCCUCAACCUCCAAUGCAUCCCACCACAUGAUGAUGCCUGAAGAGCCUAGGUAUUUUG [U126A U130A] as the variant, how does the “polymerase ribozyme fitness (log ratio)” value read?
Answer: -3.19

Question: Which “polymerase ribozyme fitness (log ratio)” value does the source give for GACCAAUCUGCCCUCAGAGCUCGAGAACAUCUUCGGAUGCAGAGGAGGCAGGCUUCGGUGGCGCGAUAGCGCCAACGUCCUCAACCUCCAAUGCAUCCCACCACAUGAUGAUGCCUGAAGAGACUUGCUUUUUUG [C123A G128C] here?
Answer: -0.87

— the RNAGym collection of RNA variant scans (doi:10.1073/pnas.2313332121)
